Laboratory results reported in paper PMC4957051, “Molecular Mechanism of Z α1-Antitrypsin Deficiency*” (The Journal of Biological Chemistry, 2016).
Positions count from the first letter of the chain named. In names and notes the source's numbering stands.

B1: α1-AT-S292C-T339C-E342A, reduced form (natural protein, human, UniProt P01009 25-418, looked up)
chain: EDPQGDAAQKTDTSHHDQDHPTFNKITPNLAEFAFSLYRQLAHQSNSTNIFFSPVSIATAFAMLSLGTKADTHDEILEGLNFNLTEIPEAQIHEGFQELLRTLNQPDSQLQLTTGNGLFLSEGLKLVDKFLEDVKKLYHSEAFTVNFGDTEEAKKQINDYVEKGTQGKIVDLVKELDRDTVFALVNYIFFKGKWERPFEVKDTEEEDFHVDQVTTVKVPMMKRLGMFNIQHSKKLSSWVLLMKYLGNATAIFFLPDEGKLQHLENELTHDIITKFLENEDRRSASLHLPKLCITGTYDLKSVLGQLGITKVFSNGADLSGVTEEAPLKLSKAVHKAVLCIDAKGTEAAGAMFLEAIPRSIPPEVKFNKPFVFLMIEQNTKSPLFMGKVVNPTQK
notes: α1-antitrypsin (α1-AT), human cDNA in pQE31, Pittsburgh backbone (M358R and C232S) with S292C, T339C and E342A; Same chain as m6, with the engineered disulfide reduced; also called α1-AT-SS-E342A (reduced); source: E. coli, purified; reduced form prepared
B2: α1-AT E342A (Pittsburgh backbone) (natural protein, human, UniProt P01009 25-418, looked up)
chain: B1 chain with C292S, C339T
notes: α1-antitrypsin (α1-AT), human cDNA in pQE31, Pittsburgh backbone (M358R and C232S) with E342A; also called E342A mutant; source: E. coli, purified from the soluble fraction of the lysate

What was measured:
thrombin = test: rates and stoichiometries of protease inhibition; as described previously (ref. 48); each value the average of three independent measurements
activated factor X (FXa) = test: as above
[1] = molecular target: the molecule itself; test: native gel or EMSA; thermal stability: α1-AT variants incubated at various temperatures in 10 mM Tris-HCl, pH 7.4, 0.1 M NaCl, 0.5 M urea for 30 min, then native gel
[2] = molecular target: T1, recombinant wild type α1-antitrypsin (α1-AT Pittsburgh backbone, M358R and C232S) (human, UniProt P01009 25-418, M358R | C232S); test: native gel or EMSA; peptide annealing: α1-AT variants (0.5 mg/ml) incubated with 100-fold molar excess of 6-mer peptide at 37 °C for different time intervals, then 8% native gel with 7 M urea; the binary complex resists urea; conditions: both partners purified
T1 construct: α1-antitrypsin (α1-AT), human cDNA in pQE31, Pittsburgh backbone (M358R and C232S); probably the mature protein behind the tag; also called Wt; WT; source: E. coli, purified from the soluble fraction of the lysate

[3] = molecular target: T2, α1-AT E342C (Pittsburgh backbone) (human, UniProt P01009 25-418, M358R | C232S | E342C); test: as above; conditions: both partners purified
T2 construct: α1-antitrypsin (α1-AT), human cDNA in pQE31, Pittsburgh backbone (M358R and C232S) with E342C; also called E342C mutant; source: E. coli, purified from the soluble fraction of the lysate

[4] = molecular target: B2; test: as above; conditions: both partners purified
[5] = molecular target: T3, α1-AT-S292C-T339C-E342A, oxidized form (disulfide between s5A and s6A) (human, UniProt P01009 25-418, M358R | C232S | S292C | T339C | E342A, disulfide bond linking s5A and s6A (Cys-292 and Cys-339)); test: as above; conditions: both partners purified
T3 construct: α1-antitrypsin (α1-AT), human cDNA in pQE31, Pittsburgh backbone (M358R and C232S) with S292C, T339C and E342A; Same chain as m7, with the engineered disulfide formed; also called α1-AT-SS-E342A (oxidized); source: E. coli, purified; oxidized form prepared

[6] = molecular target: B1; test: as above; conditions: both partners purified

Molecule	SI (stoichiometry of inhibition) (thrombin)	SI (stoichiometry of inhibition) (activated factor X (FXa))	binding result [1]	also measured
recombinant wild type α1-antitrypsin (α1-AT Pittsburgh backbone, M358R and C232S) (from UniProt P01009 25-418) (natural protein)	1.6			
α1-AT E342C (Pittsburgh backbone) (from UniProt P01009 25-418) (natural protein)	3	3		
α1-AT E342C-mod (E342C with Cys-342 chemically converted to a lysine-like residue) (from UniProt P01009 25-418) (natural protein)	3.4	3.4		
B1			binds	
FLEAIG [6-mer peptide (FLEAIG) derived from the P7 to P2 sequence of the α1-AT reactive loop]				binding result [2]: binds; binding result [3]: binds; binding result [4]: binds; binding result [5]: binds; binding result [6]: binds
B2			binds	
